{"source": "paper PMC8707168", "about": "“PL1 Peptide Engages Acidic Surfaces on Tumor-Associated Fibronectin and Tenascin Isoforms to Trigger Cellular Uptake” (Pharmaceutics, 2021)", "molecules": {"B1": {"name": "Fibronectin Extra Domain B, wild type, hexahistidine-tagged, P02751 E42Q; D68N; E64Q (protein)", "chain": "EVPQLTDLSFVDITDSSIGLRWTPLNSSTIIGYRITVVAAGQGIPIFEDFVDSSVGYYTVTGLQPGINYDISVITLINGGESAPTTLTQQT"}, "B2": {"name": "Fibronectin Extra Domain B, wild type, hexahistidine-tagged, P02751 D68N; D70N (protein)", "chain": "B1 chain with Q42E, Q64E, D70N"}, "B3": {"name": "Tenascin C C-isoform, wild type, hexahistidine-tagged D13N; E70Q; E88Q (protein)", "chain": "EALPLLENLTISNINPYGFTVSWMASENAFDSFLVTVVDSGKLLDPQEFTLSGTQRKLELRGLITGIGYQVMVSGFTQGHQTKPLRAQIVT"}, "B4": {"name": "Tenascin C C-isoform, wild type, hexahistidine-tagged E48Q (protein)", "chain": "B3 chain with N13D, E48Q, Q70E, Q88E"}, "B5": {"name": "Tenascin C C-isoform, wild type, hexahistidine-tagged D39N; D45N (protein)", "chain": "B3 chain with N13D, D39N, D45N, Q70E, Q88E"}}, "key": {"U87-MG cells": {"system": "U87-MG cells", "experiment": "Effect of endocytosis inhibitors on PL1-AgNP uptake (flow cytometry)", "assay_type": "cell-based", "conditions": "pre-incubation with 50 μM Nystatin, 50 μM EIPA, 4 μM Cytochalasin D or 10 μM Chlorpromazine, PL1-AgNPs 37 °C 1 h, etching, three independent experiments", "procedure": "For characterization of the AgNP uptake pathway in glioma cells, the U87-MG cells were cultured until 80–90% confluency and pre-incubated with the following endocytosis inhibitors: (1) 50 μM Nystatin to block caveolae/lipid-mediated endocytosis, (2) 50 μM 5-(N-ethyl-N-isopropyl)-Amiloride (EIPA) to block […], (3) 4 μM Cytochalasin D to block actin polymerization and […], and (4) 10 μM Chlorpromazine to block clathrin-mediated endocytosis. The PL1-AgNPs or control biotin-AgNPs were then added, and the cells were incubated at 37 °C for 1 h and subsequently washed to remove free particles. Some samples were also treated with an etching solution to remove accessible surface-bound AgNPs. The fluorescence of the labeled AgNPs was detected and analyzed using the BD Accuri 6 flow cytometer in the 555 nm channel."}, "FN-EDB WT and mutants": {"target": "T1, FN-EDB WT and mutants (Homo sapiens, UniProt P02751, D1277N/D1314N/D1317N)", "T1 construct": "Fibronectin Extra Domain B (FN-EDB); made in house; host or cells: E. coli BL21 Rosetta 2 (DE3) pLysS", "T1 sequence (P02751 1271-1359 D1277N/D1314N/D1317N)": "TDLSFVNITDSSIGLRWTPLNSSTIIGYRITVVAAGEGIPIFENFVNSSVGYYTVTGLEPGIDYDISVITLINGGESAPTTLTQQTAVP", "experiment": "Binding of PL1 nanoworms to recombinant FN-EDB proteins", "conditions": "FAM-labeled NWs, 80 µg/reaction, protein on Ni-NTA beads, fluorescence 485/535 nm, baseline corrected with control protein P32; three independent experiments", "procedure": "(§1) Wild type (WT) TNC-C and FN-EDB were prepared as described previously. The DNA inserts encoding for hexahistidine-tagged mutant TNC-C variants (TNC-C E48Q, TNC-C D39N D45N, TNC-C D13N E70Q E88Q) and mutant FN-EDBs variants (FnEDB D68N D70N, FnEDB D52N D49N D12N, FnEDB E42Q D68N E64Q) were synthesized and cloned into pET28a+ expression vectors (GenScript Biotech BV, Netherlands). The resulting plasmids were transformed into the E. coli BL21 Rosetta 2 (DE3) pLysS strain (Novagen, #70956). The protein expression was induced with 0.5 mM IPTG and followed by culturing at 20 °C for 16 h. The bacterial cells were lysed by sonication (Bandelin Sonopuls HD 2070, Merck, Germany) in ice-cold IMAC buffer (25 mM Tris-HCL, 400 mM NaCl, 25 mM imidazole pH 8, protease inhibitors cocktail, DNase I, 1 mM MgCl2). […] The protein concentration was measured by bicinchoninic acid (BCA) assay (Thermo Scientific #23227). The protein purity and size were analyzed using 15% SDS-PAGE.\n(§2) The recombinant hexahistidine-tagged TNC-C and EDB WT and mutant proteins (at 60 µg of protein/40 µL beads in PBS) were immobilized to Ni-NTA Magnetic Agarose Beads (QIAGEN, Hilden, Germany) at RT for 1 h. […] The fluorescence of eluted samples was quantified using a Victor X5 Multilabel Plate Reader (PerkinElmer, MA, USA) at an excitation wavelength of 485 nm and an emission wavelength of 535 nm."}, "TNC-C WT and mutants": {"target": "T2, TNC-C WT and mutants (Homo sapiens, UniProt P24821, D1565N/D1571N)", "T2 construct": "Tenascin C C-isoform (TNC-C); made in house; host or cells: E. coli BL21 Rosetta 2 (DE3) pLysS", "T2 sequence (P24821 1527-1617 D1565N/D1571N)": "B3 chain with N13D, D39N, D45N, Q70E, Q88E", "experiment": "Binding of PL1 nanoworms to recombinant TNC-C proteins", "conditions": "FAM-labeled NWs, 80 µg/reaction, protein on Ni-NTA beads, fluorescence 485/535 nm, baseline corrected with control protein P32; three independent experiments", "procedure": "as §1, §2"}, "[1]": {"target": "Fibronectin Extra Domain B mutant D52N D49N D12N, hexahistidine-tagged (human)", "experiment": "binding of fluorescent peptide nanoworms to protein-coated beads; His-tagged proteins (60 µg/40 µL beads) on Ni-NTA magnetic agarose beads; FAM-labelled PL1-NW 80 µg/reaction in PBS, 1% BSA, 0.1% NP40; 6 washes; eluted with 500 mM imidazole; fluorescence 485/535 nm; percent of WT after baseline correction with control protein P32"}, "[2]": {"target": "Tenascin C C-isoform, wild type, hexahistidine-tagged", "experiment": "fluorescence polarisation; fluorescence anisotropy saturation binding in solution; fixed FAM-PL1, 0-112 µM FN-EDB or 0-275 µM TNC-C; PBS with 0.1% Pluronic F-127; 24 h at 25 °C; non-specific binding with 500 µM Biotin-Ahx-PL1; global fit, single site with ligand depletion"}, "[3]": {"target": "Fibronectin Extra Domain B, wild type, hexahistidine-tagged (human) (UniProt P02751)", "experiment": "fluorescence polarisation; fluorescence anisotropy saturation binding in solution; fixed FAM-PL1, 0-112 µM FN-EDB or 0-275 µM TNC-C; PBS with 0.1% Pluronic F-127; 24 h at 25 °C; non-specific binding with 500 µM Biotin-Ahx-PL1; global fit, single site with ligand depletion"}, "[4]": {"target": "T3, PL1-functionalized iron oxide nanoworms (FAM-labelled PL1 peptide on NWs)", "T3 chain": "PPRRGLIKLKTS", "experiment": "fluorescence readout of FAM-labeled PL1-NW binding to protein-coated NiNTA beads", "conditions": "chain shown with the change; baseline correction with control protein P32; parent: est. 100; read off a plot"}, "[5]": {"target": "T4, PL1 peptide displayed on T7 phage", "T4 chain": "PPRRGLIKLKTS", "experiment": "phage binding to immobilized recombinant protein (Ni-NTA magnetic beads)", "conditions": "chain shown with the change;; parent: est. 100; read off a plot"}, "[6]": {"target": "Fibronectin Extra Domain B mutant E42Q D68N E64Q, hexahistidine-tagged (human)", "experiment": "phage binding assay (titre of eluted phage); His-tagged proteins (30 µg/10 µL beads) on Ni-NTA magnetic agarose beads; T7 phage 5 x 10^8 pfu in 100 µL PBS, 1% BSA, 0.1% NP40, RT, 1 h; 6 washes; eluted with 500 mM imidazole; PFU counted; expressed as percent of WT protein"}, "[7]": {"target": "Fibronectin Extra Domain B mutant D68N D70N, hexahistidine-tagged (human)", "experiment": "phage binding assay (titre of eluted phage); His-tagged proteins (30 µg/10 µL beads) on Ni-NTA magnetic agarose beads; T7 phage 5 x 10^8 pfu in 100 µL PBS, 1% BSA, 0.1% NP40, RT, 1 h; 6 washes; eluted with 500 mM imidazole; PFU counted; expressed as percent of WT protein"}, "[8]": {"target": "Fibronectin Extra Domain B mutant D52N D49N D12N, hexahistidine-tagged (human)", "experiment": "phage binding assay (titre of eluted phage); His-tagged proteins (30 µg/10 µL beads) on Ni-NTA magnetic agarose beads; T7 phage 5 x 10^8 pfu in 100 µL PBS, 1% BSA, 0.1% NP40, RT, 1 h; 6 washes; eluted with 500 mM imidazole; PFU counted; expressed as percent of WT protein"}}, "note": "Residue numbers refer to the chain shown, from its start. Names may count otherwise. “Also recorded” adds a separate entry of the source. FAM = 5(6)-carboxyfluorescein; Ahx = NCCCCCC(=O)O", "data": [{"molecule": "C[C@@H]1[C@H](O)[C@@H](C)/C=C/C=C/CC/C=C/C=C/C=C/C=C/C(O[C@H]2O[C@H](C)[C@@H](O)[C@H](N)[C@@H]2O)CC2O[C@](O)(CC(O)C(O)CCC(O)CC(O)CC(O)CC(=O)O[C@H]1C)CC(O)C2C(=O)O", "note": "(stereo partly shown) [Nystatin]", "values": [{"measurement": "Effect of inhibitor on the uptake of PL1-AgNPs in U87-MG cells", "setting": "U87-MG cells", "value": "statistically significant inhibitory effect"}]}, {"molecule": "PL1-NW: iron oxide nanoworms coated with PL1 peptide labeled with FAM fluorophore ({FAM-Ahx}-PPRRGLIKLKTS-OH; also: peptide coated on iron oxide nanoworms)", "values": [{"measurement": "Reduction of PL1-NW binding to FN-EDB D52N D49N D12N mutant versus WT FN-EDB", "setting": "FN-EDB WT and mutants", "value": "~ 76%"}, {"measurement": "Reduction of PL1-NW binding to TNC-C D39N D45N mutant versus WT TNC-C", "setting": "TNC-C WT and mutants", "value": "~ 100%"}]}, {"molecule": "CN(C)CCCN1c2ccccc2Sc2ccc(Cl)cc21", "note": "[Chlorpromazine]", "values": [{"measurement": "Effect of inhibitor on the uptake of PL1-AgNPs in U87-MG cells", "setting": "U87-MG cells", "value": "statistically significant inhibitory effect"}]}, {"molecule": "C=C1[C@@H](C)[C@H]2[C@H](Cc3ccccc3)NC(=O)[C@]23[C@H](OC(C)=O)/C=C/[C@@](C)(O)C(=O)[C@@H](C)C/C=C/[C@H]3[C@@H]1O", "note": "[Cytochalasin D]", "values": [{"measurement": "Effect of inhibitor on the uptake of PL1-AgNPs in U87-MG cells", "setting": "U87-MG cells", "value": "statistically significant inhibitory effect"}]}, {"molecule": "CCN(c1nc(N)c(C(=O)N=C(N)N)nc1Cl)C(C)C", "note": "[EIPA, 5-(N-ethyl-N-isopropyl)-Amiloride]", "values": [{"measurement": "Effect of inhibitor on the uptake of PL1-AgNPs in U87-MG cells", "setting": "U87-MG cells", "value": "statistically significant inhibitory effect; also recorded: strongest"}]}, {"molecule": "{FAM-Ahx}-PPRRGLIKLKTS-OH (also: peptide coated on iron oxide nanoworms)", "note": "[PL1-functionalized iron oxide nanoworms (FAM-labelled PL1 peptide on NWs)]", "values": [{"measurement": "percent reduction of binding against WT FN-EDB", "setting": "[1]", "value": 76, "unit": "%"}]}, {"molecule": "{5(6)‑carboxyfluorescein-Ahx}-PPRRGLIKLKTS-OH", "note": "[FAM-PL1 peptide (free peptide)]", "values": [{"measurement": "Kd", "setting": "[2]", "value": 1140, "unit": "nM"}, {"measurement": "Kd", "setting": "[3]", "value": 1110, "unit": "nM"}]}, {"molecule": "B1", "values": [{"measurement": "percent of parent (% Change over wt FnEDB)", "setting": "[4]", "value": 57}]}, {"molecule": "B2", "values": [{"measurement": "percent of parent (% Change over wt FnEDB)", "setting": "[4]", "value": 29}]}, {"molecule": "B3", "values": [{"measurement": "percent of parent (% Change over wt TNC-C)", "setting": "[5]", "value": 33}, {"measurement": "percent of parent (% Change over wt TNC-C)", "setting": "[4]", "value": 70}]}, {"molecule": "B4", "values": [{"measurement": "percent of parent (% Change over wt TNC-C)", "setting": "[5]", "value": 38}, {"measurement": "percent of parent (% Change over wt TNC-C)", "setting": "[4]", "value": 64}]}, {"molecule": "B5", "values": [{"measurement": "percent of parent (% Change over wt TNC-C)", "setting": "[4]", "value": 0}]}, {"molecule": "PPRRGLIKLKTS", "note": "[PL1 peptide displayed on T7 phage]", "values": [{"measurement": "percent increase of binding against WT FN-EDB", "setting": "[6]", "value": 161, "unit": "%"}, {"measurement": "percent increase of binding against WT FN-EDB", "setting": "[7]", "value": 142, "unit": "%"}, {"measurement": "percent decrease of binding against WT FN-EDB", "setting": "[8]", "value": 87, "unit": "%"}]}]}
